Source: paper PMC9482650, “Quantitative fragmentomics allow affinity mapping of interactomes” (Nature Communications, 2022)
Each block holds one binder with its values, some of them ahead of it.

Legend:
Assay in all cases: holdup assay
Parameters in all cases: key: below the threshold = too weak to quantify, mostly under pKd 3.1 to 4
[1] = molecular target: FRMPD2_1, Q68DX3
[2] = molecular target: Inadl_6, Q8NI35
[3] = molecular target: GRASP, Q7Z6J2
[4] = molecular target: T1, DVL3, Q92997
T1 sequence (Q92997 244-331, limits assumed, looked up): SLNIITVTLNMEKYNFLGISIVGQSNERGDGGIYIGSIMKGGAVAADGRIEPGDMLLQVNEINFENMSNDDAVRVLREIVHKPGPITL

[5] = molecular target: DLG2_3, Q15700
[6] = molecular target: T2, SNTG2, Q9NY99
T2 sequence (Q9NY99 68-166, limits assumed, looked up): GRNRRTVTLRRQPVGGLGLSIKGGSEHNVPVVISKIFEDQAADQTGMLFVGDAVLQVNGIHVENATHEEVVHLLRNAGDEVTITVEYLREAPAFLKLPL

[7] = molecular target: T3, PTPN13_1, Q12923
T3 sequence (Q12923 1088-1188, limits assumed, looked up): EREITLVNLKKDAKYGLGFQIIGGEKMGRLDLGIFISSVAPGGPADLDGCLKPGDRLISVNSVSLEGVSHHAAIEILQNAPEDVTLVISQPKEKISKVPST

[8] = molecular target: FRMPD2_3, Q68DX3
FRMPD2_3, Q68DX3, sequence (Q68DX3 1073-1166): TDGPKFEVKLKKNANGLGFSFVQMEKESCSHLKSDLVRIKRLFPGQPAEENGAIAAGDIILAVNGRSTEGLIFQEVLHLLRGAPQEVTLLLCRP

[9] = molecular target: Inadl_8, Q8NI35
Inadl_8, Q8NI35, sequence (Q8NI35 1425-1530): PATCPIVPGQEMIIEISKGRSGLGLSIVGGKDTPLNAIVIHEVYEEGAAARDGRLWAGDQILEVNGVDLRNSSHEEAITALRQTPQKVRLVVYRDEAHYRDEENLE

[10] = molecular target: ARHGEF12, Q9NZN5-2
ARHGEF12, Q9NZN5-2, sequence (Q9NZN5 other isoform, or with tags, fused parts or gaps): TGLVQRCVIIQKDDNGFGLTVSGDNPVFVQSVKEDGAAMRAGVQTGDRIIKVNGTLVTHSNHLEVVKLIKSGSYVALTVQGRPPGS

[11] = molecular target: FRMPD2_2, Q68DX3
FRMPD2_2, Q68DX3, sequence (Q68DX3 944-1038): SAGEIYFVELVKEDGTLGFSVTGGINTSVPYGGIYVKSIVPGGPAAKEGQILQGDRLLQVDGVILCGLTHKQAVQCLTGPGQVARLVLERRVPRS

[12] = molecular target: T4, TIAM2, Q8IVF5
T4 sequence (Q8IVF5 885-986, limits assumed, looked up): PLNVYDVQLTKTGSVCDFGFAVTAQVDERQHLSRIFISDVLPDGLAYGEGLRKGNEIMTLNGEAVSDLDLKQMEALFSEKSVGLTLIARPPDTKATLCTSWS

[13] = molecular target: LNX1_2, Q8TBB1
LNX1_2, Q8TBB1, sequence (Q8TBB1 371-470): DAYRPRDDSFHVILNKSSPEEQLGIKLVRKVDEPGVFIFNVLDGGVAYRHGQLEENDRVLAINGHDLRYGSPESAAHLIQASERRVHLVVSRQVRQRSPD

[14] = molecular target: FRMPD4, Q14CM0
FRMPD4, Q14CM0, sequence (Q14CM0 67-160): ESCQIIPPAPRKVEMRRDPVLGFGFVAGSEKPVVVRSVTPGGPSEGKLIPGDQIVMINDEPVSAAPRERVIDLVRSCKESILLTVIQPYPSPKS

[15] = molecular target: MAGI2_3, Q86UL8
MAGI2_3, Q86UL8, sequence (Q86UL8 600-682): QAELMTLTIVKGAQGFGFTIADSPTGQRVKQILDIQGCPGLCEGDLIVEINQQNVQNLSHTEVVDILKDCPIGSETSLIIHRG

[16] = molecular target: T5, FRMPD1, Q5SYB0
T5 sequence (Q5SYB0 52-145, limits assumed, looked up): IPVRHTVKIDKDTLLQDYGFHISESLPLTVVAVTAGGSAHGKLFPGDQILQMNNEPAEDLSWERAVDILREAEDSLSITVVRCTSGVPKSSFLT

[17] = molecular target: PDZRN4_1, Q6ZMN7
PDZRN4_1, Q6ZMN7, sequence (Q6ZMN7 213-318): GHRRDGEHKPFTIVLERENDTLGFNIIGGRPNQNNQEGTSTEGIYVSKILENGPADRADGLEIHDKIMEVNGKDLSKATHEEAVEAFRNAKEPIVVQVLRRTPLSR

[18] = molecular target: NHERF4_4, Q86UT5
NHERF4_4, Q86UT5, sequence (Q86UT5 464-550): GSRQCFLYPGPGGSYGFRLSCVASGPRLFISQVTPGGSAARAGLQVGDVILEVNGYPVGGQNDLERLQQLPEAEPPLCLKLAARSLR

[19] = molecular target: GRIP2_4, Q9C0E4
GRIP2_4, Q9C0E4, sequence (Q9C0E4 446-548): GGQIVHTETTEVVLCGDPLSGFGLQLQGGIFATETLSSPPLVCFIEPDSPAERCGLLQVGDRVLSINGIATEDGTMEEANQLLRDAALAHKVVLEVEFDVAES

[20] = molecular target: T6, HTRA4, P83105
T6 sequence (P83105 378-476, limits assumed, looked up): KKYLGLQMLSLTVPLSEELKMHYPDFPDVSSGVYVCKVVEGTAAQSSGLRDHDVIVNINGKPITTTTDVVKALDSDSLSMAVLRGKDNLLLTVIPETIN

[21] = molecular target: T7, RAPGEF6, Q8TEU7
T7 sequence (Q8TEU7 525-625, limits assumed, looked up): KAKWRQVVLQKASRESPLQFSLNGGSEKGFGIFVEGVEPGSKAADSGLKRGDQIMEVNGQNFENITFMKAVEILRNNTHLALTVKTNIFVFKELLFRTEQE

[22] = molecular target: MAGI2_6, Q86UL8
MAGI2_6, Q86UL8, sequence (Q86UL8 1141-1229): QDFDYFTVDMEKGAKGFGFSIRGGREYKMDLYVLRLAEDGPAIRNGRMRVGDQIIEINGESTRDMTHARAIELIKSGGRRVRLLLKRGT

[23] = molecular target: LNX1_1, Q8TBB1
LNX1_1, Q8TBB1, sequence (Q8TBB1 261-371): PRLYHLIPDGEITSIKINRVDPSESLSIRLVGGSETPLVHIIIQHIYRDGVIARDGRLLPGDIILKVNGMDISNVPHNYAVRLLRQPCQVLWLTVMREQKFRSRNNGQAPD

[24] = molecular target: T8, RHPN1, Q8TCX5
T8 sequence (Q8TCX5 508-602, limits assumed, looked up): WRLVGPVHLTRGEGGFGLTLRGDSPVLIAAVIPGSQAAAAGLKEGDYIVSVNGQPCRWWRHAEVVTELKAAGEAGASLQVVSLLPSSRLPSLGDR

[25] = molecular target: T9, APBA3_1, O96018
T9 sequence (O96018 389-490, limits assumed, looked up): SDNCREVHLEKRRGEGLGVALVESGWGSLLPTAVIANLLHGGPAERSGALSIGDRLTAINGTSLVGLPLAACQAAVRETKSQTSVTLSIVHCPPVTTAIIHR

[26] = molecular target: T10, PDZD7_3, Q9H5P4
T10 sequence (Q9H5P4 857-944, limits assumed, looked up): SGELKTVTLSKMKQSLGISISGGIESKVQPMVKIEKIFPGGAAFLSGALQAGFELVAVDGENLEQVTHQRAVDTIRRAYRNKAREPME

[27] = molecular target: T11, SIPA1L2, Q9P2F8
T11 sequence (Q9P2F8 945-1036, limits assumed, looked up): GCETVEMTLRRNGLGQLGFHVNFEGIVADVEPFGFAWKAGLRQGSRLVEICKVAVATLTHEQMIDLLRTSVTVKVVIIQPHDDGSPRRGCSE

[28] = plain residues with an end cap or a label only (N-terminal biotin on a linker: ado-ado)
[29] = plain residues with an end cap or a label only (N-terminal biotin on a linker: ahx)

Inadl_6, Q8NI35, sequence (Q8NI35 1058-1167): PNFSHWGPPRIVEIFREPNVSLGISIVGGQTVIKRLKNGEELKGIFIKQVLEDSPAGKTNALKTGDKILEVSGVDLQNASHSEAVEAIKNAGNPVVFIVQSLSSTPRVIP
FRMPD2_1, Q68DX3, sequence (Q68DX3 770-861): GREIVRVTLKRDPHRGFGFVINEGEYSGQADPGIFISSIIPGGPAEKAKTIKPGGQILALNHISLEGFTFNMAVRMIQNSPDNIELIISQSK
GRASP, Q7Z6J2, sequence (Q7Z6J2 96-193): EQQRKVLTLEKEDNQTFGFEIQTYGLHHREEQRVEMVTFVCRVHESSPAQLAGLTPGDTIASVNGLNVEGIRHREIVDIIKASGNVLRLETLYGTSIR

pKd [1, 28]: below the threshold
pKd [2, 28]: below the threshold
pKd [3, 28]: 4.62
pKd [4, 28]: below the threshold
pKd [5, 28]: below the threshold
pKd [6, 28]: 3.7
pKd [7, 28]: below the threshold
pKd [8, 28]: below the threshold
pKd [9, 28]: below the threshold
pKd [10, 28]: below the threshold
pKd [11, 28]: below the threshold
pKd [12, 28]: below the threshold
pKd [13, 28]: below the threshold
pKd [14, 28]: 4.01
pKd [15, 28]: below the threshold
pKd [16, 28]: below the threshold
pKd [17, 28]: below the threshold
pKd [18, 28]: below the threshold
pKd [19, 28]: below the threshold
pKd [20, 28]: 3.8
pKd [21, 28]: below the threshold
pKd [22, 28]: 3.57
pKd [23, 28]: below the threshold
pKd [24, 28]: below the threshold
pKd [25, 28]: below the threshold
pKd [26, 28]: 3.8
pKd [27, 28]: below the threshold
Binder: GEDRSPPTAL [MKNK1, Q9BUB5]

pKd [1, 29]: below the threshold
pKd [2, 29]: below the threshold
pKd [3, 29]: 4.29
pKd [4, 29]: below the threshold
pKd [5, 29]: below the threshold
pKd [6, 29]: below the threshold
pKd [7, 29]: below the threshold
pKd [8, 29]: below the threshold
pKd [9, 29]: below the threshold
pKd [10, 29]: 3.65
pKd [11, 29]: below the threshold
pKd [12, 29]: below the threshold
pKd [13, 29]: below the threshold
pKd [14, 29]: 3.67
pKd [15, 29]: below the threshold
pKd [16, 29]: below the threshold
pKd [17, 29]: below the threshold
pKd [18, 29]: below the threshold
pKd [19, 29]: below the threshold
pKd [20, 29]: below the threshold
pKd [21, 29]: below the threshold
pKd [22, 29]: below the threshold
pKd [23, 29]: below the threshold
pKd [24, 29]: 4.38
pKd [25, 29]: below the threshold
pKd [26, 29]: 3.51
pKd [27, 29]: below the threshold
Binder: QNTDDVQTSF [ACE2, Q9BYF1]

pKd [1, 28]: below the threshold
pKd [2, 28]: below the threshold
pKd [3, 28]: below the threshold
pKd [4, 28]: below the threshold
pKd [5, 28]: 3.63
pKd [6, 28]: below the threshold
pKd [7, 28]: below the threshold
pKd [8, 28]: below the threshold
pKd [9, 28]: below the threshold
pKd [10, 28]: below the threshold
pKd [11, 28]: below the threshold
pKd [12, 28]: 3.87
pKd [13, 28]: below the threshold
pKd [14, 28]: below the threshold
pKd [15, 28]: below the threshold
pKd [16, 28]: below the threshold
pKd [17, 28]: below the threshold
pKd [18, 28]: 4.9
pKd [19, 28]: below the threshold
pKd [20, 28]: 3.96
pKd [21, 28]: below the threshold
pKd [22, 28]: below the threshold
pKd [23, 28]: below the threshold
pKd [24, 28]: below the threshold
pKd [25, 28]: below the threshold
pKd [26, 28]: below the threshold
pKd [27, 28]: below the threshold
Binder: LPAVCYDIDI [PTTG2, Q9NZH5]

pKd [1, 28]: below the threshold
pKd [2, 28]: below the threshold
pKd [3, 28]: below the threshold
pKd [4, 28]: below the threshold
pKd [5, 28]: 3.54
pKd [6, 28]: below the threshold
pKd [7, 28]: below the threshold
pKd [8, 28]: below the threshold
pKd [9, 28]: 4.22
pKd [10, 28]: below the threshold
pKd [11, 28]: below the threshold
pKd [12, 28]: 3.77
pKd [13, 28]: below the threshold
pKd [14, 28]: below the threshold
pKd [15, 28]: below the threshold
pKd [16, 28]: below the threshold
pKd [17, 28]: below the threshold
pKd [18, 28]: below the threshold
pKd [19, 28]: below the threshold
pKd [20, 28]: 3.82
pKd [21, 28]: below the threshold
pKd [22, 28]: below the threshold
pKd [23, 28]: below the threshold
pKd [24, 28]: below the threshold
pKd [25, 28]: below the threshold
pKd [26, 28]: below the threshold
pKd [27, 28]: below the threshold
Binder: NNNVVKVDSV [MTNR1A, P48039]

pKd [1, 28]: below the threshold
pKd [2, 28]: below the threshold
pKd [3, 28]: below the threshold
pKd [4, 28]: below the threshold
pKd [5, 28]: 3.62
pKd [6, 28]: 4.51
pKd [7, 28]: below the threshold
pKd [8, 28]: below the threshold
pKd [9, 28]: below the threshold
pKd [10, 28]: 3.67
pKd [11, 28]: below the threshold
pKd [12, 28]: 3.83
pKd [13, 28]: below the threshold
pKd [14, 28]: below the threshold
pKd [15, 28]: below the threshold
pKd [16, 28]: below the threshold
pKd [17, 28]: below the threshold
pKd [18, 28]: below the threshold
pKd [19, 28]: below the threshold
pKd [20, 28]: below the threshold
pKd [21, 28]: below the threshold
pKd [22, 28]: 3.5
pKd [23, 28]: below the threshold
pKd [24, 28]: 4.57
pKd [25, 28]: below the threshold
pKd [26, 28]: 4.69
pKd [27, 28]: below the threshold
Binder: SVTSERETNI [SLC16A7, O60669]
